Laboratory results: the MegaScale stability set (Tsuboyama et al. 2023)

B1: EEHEE_rd4_0003 (parent)
chain: KKVTINGVEIKFNNPEEAVKFALELAKRLNLRIEFHGDQIKIE

Variants of: B1
Experiment: folding stability dG (cDNA display proteolysis); higher = more stable
Settings: PBS, room temperature

Variant	folding stability dG
KKVTINGVEIKFNNPEEAVKFALELAKRLNLRIKFHGDQIKIE	2.42 kcal/mol
KKVTINGVEIKFNNPEEAVKFALELAKRLNLRILFHGDQIKIE	2.49 kcal/mol
KKVTINGVEIKFNNPEEAVKFALELAKRLNLRIMFHGDQIKIE	2.47 kcal/mol
KKVTINGVEIKFNNPEEAVKFALELAKRLNLRINFHGDQIKIE	2.27 kcal/mol
KKVTINGVEIKFNNPEEAVKFALELAKRLNLRIPFHGDQIKIE	1.48 kcal/mol
KKVTINGVEIKFNNPEEAVKFALELAKRLNLRIQFHGDQIKIE	2.44 kcal/mol
KKVTINGVEIKFNNPEEAVKFALELAKRLNLRIRFHGDQIKIE	2.58 kcal/mol
KKVTINGVEIKFNNPEEAVKFALELAKRLNLRISFHGDQIKIE	2.77 kcal/mol
KKVTINGVEIKFNNPEEAVKFALELAKRLNLRITFHGDQIKIE	2.86 kcal/mol
KKVTINGVEIKFNNPEEAVKFALELAKRLNLRIVFHGDQIKIE	2.73 kcal/mol
KKVTINGVEIKFNNPEEAVKFALELAKRLNLRIWFHGDQIKIE	2.62 kcal/mol
KKVTINGVEIKFNNPEEAVKFALELAKRLNLRIYFHGDQIKIE	2.77 kcal/mol
KKVTINGVEIKFNNPEEAVKFALELAKRLNLRIEAHGDQIKIE	1.71 kcal/mol
KKVTINGVEIKFNNPEEAVKFALELAKRLNLRIECHGDQIKIE	3.05 kcal/mol
KKVTINGVEIKFNNPEEAVKFALELAKRLNLRIEDHGDQIKIE	1.5 kcal/mol
KKVTINGVEIKFNNPEEAVKFALELAKRLNLRIEEHGDQIKIE	1.63 kcal/mol
KKVTINGVEIKFNNPEEAVKFALELAKRLNLRIEGHGDQIKIE	1.41 kcal/mol
KKVTINGVEIKFNNPEEAVKFALELAKRLNLRIEHHGDQIKIE	1.88 kcal/mol
KKVTINGVEIKFNNPEEAVKFALELAKRLNLRIEIHGDQIKIE	2.58 kcal/mol
KKVTINGVEIKFNNPEEAVKFALELAKRLNLRIEKHGDQIKIE	1.78 kcal/mol
KKVTINGVEIKFNNPEEAVKFALELAKRLNLRIELHGDQIKIE	2.2 kcal/mol
KKVTINGVEIKFNNPEEAVKFALELAKRLNLRIEMHGDQIKIE	2.24 kcal/mol
KKVTINGVEIKFNNPEEAVKFALELAKRLNLRIENHGDQIKIE	1.46 kcal/mol
KKVTINGVEIKFNNPEEAVKFALELAKRLNLRIEPHGDQIKIE	1.31 kcal/mol

Variant	folding stability dG
KKVTINGVEIKFNNPEEAVKFALELAKRLNLRIEQHGDQIKIE	1.79 kcal/mol
KKVTINGVEIKFNNPEEAVKFALELAKRLNLRIERHGDQIKIE	1.8 kcal/mol
KKVTINGVEIKFNNPEEAVKFALELAKRLNLRIESHGDQIKIE	1.64 kcal/mol
KKVTINGVEIKFNNPEEAVKFALELAKRLNLRIETHGDQIKIE	1.82 kcal/mol
KKVTINGVEIKFNNPEEAVKFALELAKRLNLRIEVHGDQIKIE	2.37 kcal/mol
KKVTINGVEIKFNNPEEAVKFALELAKRLNLRIEWHGDQIKIE	2.7 kcal/mol
KKVTINGVEIKFNNPEEAVKFALELAKRLNLRIEYHGDQIKIE	2.41 kcal/mol
KKVTINGVEIKFNNPEEAVKFALELAKRLNLRIEFAGDQIKIE	2.62 kcal/mol
KKVTINGVEIKFNNPEEAVKFALELAKRLNLRIEFCGDQIKIE	3.21 kcal/mol
KKVTINGVEIKFNNPEEAVKFALELAKRLNLRIEFDGDQIKIE	2.76 kcal/mol
KKVTINGVEIKFNNPEEAVKFALELAKRLNLRIEFEGDQIKIE	2.58 kcal/mol
KKVTINGVEIKFNNPEEAVKFALELAKRLNLRIEFFGDQIKIE	2.78 kcal/mol
KKVTINGVEIKFNNPEEAVKFALELAKRLNLRIEFGGDQIKIE	2.28 kcal/mol
KKVTINGVEIKFNNPEEAVKFALELAKRLNLRIEFIGDQIKIE	2.93 kcal/mol
KKVTINGVEIKFNNPEEAVKFALELAKRLNLRIEFKGDQIKIE	2.53 kcal/mol
KKVTINGVEIKFNNPEEAVKFALELAKRLNLRIEFLGDQIKIE	2.88 kcal/mol
KKVTINGVEIKFNNPEEAVKFALELAKRLNLRIEFMGDQIKIE	2.72 kcal/mol
KKVTINGVEIKFNNPEEAVKFALELAKRLNLRIEFNGDQIKIE	2.58 kcal/mol
KKVTINGVEIKFNNPEEAVKFALELAKRLNLRIEFPGDQIKIE	1.71 kcal/mol
KKVTINGVEIKFNNPEEAVKFALELAKRLNLRIEFQGDQIKIE	2.56 kcal/mol
KKVTINGVEIKFNNPEEAVKFALELAKRLNLRIEFRGDQIKIE	2.52 kcal/mol
KKVTINGVEIKFNNPEEAVKFALELAKRLNLRIEFSGDQIKIE	2.66 kcal/mol
KKVTINGVEIKFNNPEEAVKFALELAKRLNLRIEFTGDQIKIE	2.7 kcal/mol
KKVTINGVEIKFNNPEEAVKFALELAKRLNLRIEFVGDQIKIE	2.89 kcal/mol

Variant	folding stability dG
KKVTINGVEIKFNNPEEAVKFALELAKRLNLRIEFWGDQIKIE	2.73 kcal/mol
KKVTINGVEIKFNNPEEAVKFALELAKRLNLRIEFYGDQIKIE	2.75 kcal/mol
KKVTINGVEIKFNNPEEAVKFALELAKRLNLRIEFHADQIKIE	2.39 kcal/mol
KKVTINGVEIKFNNPEEAVKFALELAKRLNLRIEFHCDQIKIE	2.68 kcal/mol
KKVTINGVEIKFNNPEEAVKFALELAKRLNLRIEFHDDQIKIE	2.45 kcal/mol
KKVTINGVEIKFNNPEEAVKFALELAKRLNLRIEFHEDQIKIE	2.52 kcal/mol
KKVTINGVEIKFNNPEEAVKFALELAKRLNLRIEFHFDQIKIE	2.48 kcal/mol
KKVTINGVEIKFNNPEEAVKFALELAKRLNLRIEFHHDQIKIE	2.42 kcal/mol
KKVTINGVEIKFNNPEEAVKFALELAKRLNLRIEFHIDQIKIE	2.35 kcal/mol
KKVTINGVEIKFNNPEEAVKFALELAKRLNLRIEFHKDQIKIE	2.47 kcal/mol
KKVTINGVEIKFNNPEEAVKFALELAKRLNLRIEFHLDQIKIE	2.45 kcal/mol
KKVTINGVEIKFNNPEEAVKFALELAKRLNLRIEFHMDQIKIE	2.52 kcal/mol
KKVTINGVEIKFNNPEEAVKFALELAKRLNLRIEFHNDQIKIE	2.41 kcal/mol
KKVTINGVEIKFNNPEEAVKFALELAKRLNLRIEFHPDQIKIE	2.49 kcal/mol
KKVTINGVEIKFNNPEEAVKFALELAKRLNLRIEFHQDQIKIE	2.44 kcal/mol
KKVTINGVEIKFNNPEEAVKFALELAKRLNLRIEFHRDQIKIE	2.29 kcal/mol
KKVTINGVEIKFNNPEEAVKFALELAKRLNLRIEFHSDQIKIE	2.35 kcal/mol
KKVTINGVEIKFNNPEEAVKFALELAKRLNLRIEFHTDQIKIE	2.26 kcal/mol
KKVTINGVEIKFNNPEEAVKFALELAKRLNLRIEFHVDQIKIE	2.38 kcal/mol
KKVTINGVEIKFNNPEEAVKFALELAKRLNLRIEFHWDQIKIE	2.44 kcal/mol
KKVTINGVEIKFNNPEEAVKFALELAKRLNLRIEFHYDQIKIE	2.41 kcal/mol
KKVTINGVEIKFNNPEEAVKFALELAKRLNLRIEFHGAQIKIE	2.15 kcal/mol
KKVTINGVEIKFNNPEEAVKFALELAKRLNLRIEFHGCQIKIE	3.49 kcal/mol
KKVTINGVEIKFNNPEEAVKFALELAKRLNLRIEFHGEQIKIE	2.3 kcal/mol

Variant	folding stability dG
KKVTINGVEIKFNNPEEAVKFALELAKRLNLRIEFHGFQIKIE	2.7 kcal/mol
KKVTINGVEIKFNNPEEAVKFALELAKRLNLRIEFHGGQIKIE	2.31 kcal/mol
KKVTINGVEIKFNNPEEAVKFALELAKRLNLRIEFHGHQIKIE	2.25 kcal/mol
KKVTINGVEIKFNNPEEAVKFALELAKRLNLRIEFHGIQIKIE	2.49 kcal/mol
KKVTINGVEIKFNNPEEAVKFALELAKRLNLRIEFHGKQIKIE	2.15 kcal/mol
KKVTINGVEIKFNNPEEAVKFALELAKRLNLRIEFHGLQIKIE	2.33 kcal/mol
KKVTINGVEIKFNNPEEAVKFALELAKRLNLRIEFHGMQIKIE	2.34 kcal/mol
KKVTINGVEIKFNNPEEAVKFALELAKRLNLRIEFHGNQIKIE	2.61 kcal/mol
KKVTINGVEIKFNNPEEAVKFALELAKRLNLRIEFHGPQIKIE	2.1 kcal/mol
KKVTINGVEIKFNNPEEAVKFALELAKRLNLRIEFHGQQIKIE	2.25 kcal/mol
KKVTINGVEIKFNNPEEAVKFALELAKRLNLRIEFHGRQIKIE	2.01 kcal/mol
KKVTINGVEIKFNNPEEAVKFALELAKRLNLRIEFHGSQIKIE	2.32 kcal/mol
KKVTINGVEIKFNNPEEAVKFALELAKRLNLRIEFHGTQIKIE	2.29 kcal/mol
KKVTINGVEIKFNNPEEAVKFALELAKRLNLRIEFHGVQIKIE	2.23 kcal/mol
KKVTINGVEIKFNNPEEAVKFALELAKRLNLRIEFHGWQIKIE	2.73 kcal/mol
KKVTINGVEIKFNNPEEAVKFALELAKRLNLRIEFHGYQIKIE	2.45 kcal/mol
KKVTINGVEIKFNNPEEAVKFALELAKRLNLRIEFHGDAIKIE	2.62 kcal/mol
KKVTINGVEIKFNNPEEAVKFALELAKRLNLRIEFHGDCIKIE	3.11 kcal/mol
KKVTINGVEIKFNNPEEAVKFALELAKRLNLRIEFHGDDIKIE	2.64 kcal/mol
KKVTINGVEIKFNNPEEAVKFALELAKRLNLRIEFHGDEIKIE	2.92 kcal/mol
KKVTINGVEIKFNNPEEAVKFALELAKRLNLRIEFHGDFIKIE	2.91 kcal/mol
KKVTINGVEIKFNNPEEAVKFALELAKRLNLRIEFHGDGIKIE	2.52 kcal/mol
KKVTINGVEIKFNNPEEAVKFALELAKRLNLRIEFHGDHIKIE	2.91 kcal/mol
KKVTINGVEIKFNNPEEAVKFALELAKRLNLRIEFHGDIIKIE	3.05 kcal/mol

Variant	folding stability dG
KKVTINGVEIKFNNPEEAVKFALELAKRLNLRIEFHGDKIKIE	2.33 kcal/mol
KKVTINGVEIKFNNPEEAVKFALELAKRLNLRIEFHGDLIKIE	2.95 kcal/mol
KKVTINGVEIKFNNPEEAVKFALELAKRLNLRIEFHGDMIKIE	2.88 kcal/mol
KKVTINGVEIKFNNPEEAVKFALELAKRLNLRIEFHGDNIKIE	2.82 kcal/mol
KKVTINGVEIKFNNPEEAVKFALELAKRLNLRIEFHGDPIKIE	1.77 kcal/mol
KKVTINGVEIKFNNPEEAVKFALELAKRLNLRIEFHGDRIKIE	2.52 kcal/mol
KKVTINGVEIKFNNPEEAVKFALELAKRLNLRIEFHGDSIKIE	2.75 kcal/mol
KKVTINGVEIKFNNPEEAVKFALELAKRLNLRIEFHGDTIKIE	3.22 kcal/mol
KKVTINGVEIKFNNPEEAVKFALELAKRLNLRIEFHGDVIKIE	3.18 kcal/mol
KKVTINGVEIKFNNPEEAVKFALELAKRLNLRIEFHGDWIKIE	3.07 kcal/mol
KKVTINGVEIKFNNPEEAVKFALELAKRLNLRIEFHGDYIKIE	3.04 kcal/mol
KKVTINGVEIKFNNPEEAVKFALELAKRLNLRIEFHGDQAKIE	1.49 kcal/mol
KKVTINGVEIKFNNPEEAVKFALELAKRLNLRIEFHGDQCKIE	2.22 kcal/mol
KKVTINGVEIKFNNPEEAVKFALELAKRLNLRIEFHGDQDKIE	1.39 kcal/mol
KKVTINGVEIKFNNPEEAVKFALELAKRLNLRIEFHGDQEKIE	1.44 kcal/mol
KKVTINGVEIKFNNPEEAVKFALELAKRLNLRIEFHGDQFKIE	1.78 kcal/mol
KKVTINGVEIKFNNPEEAVKFALELAKRLNLRIEFHGDQGKIE	1.37 kcal/mol
KKVTINGVEIKFNNPEEAVKFALELAKRLNLRIEFHGDQHKIE	1.56 kcal/mol
KKVTINGVEIKFNNPEEAVKFALELAKRLNLRIEFHGDQKKIE	1.5 kcal/mol
KKVTINGVEIKFNNPEEAVKFALELAKRLNLRIEFHGDQLKIE	2.1 kcal/mol
KKVTINGVEIKFNNPEEAVKFALELAKRLNLRIEFHGDQMKIE	1.92 kcal/mol
KKVTINGVEIKFNNPEEAVKFALELAKRLNLRIEFHGDQNKIE	1.44 kcal/mol
